Values quoted from earlier work, collected in PMC5860782.

Target: clathrin light chain (Saccharomyces cerevisiae) (UniProt P17891)
Chain of UniProt P17891 (P17891 whole entry): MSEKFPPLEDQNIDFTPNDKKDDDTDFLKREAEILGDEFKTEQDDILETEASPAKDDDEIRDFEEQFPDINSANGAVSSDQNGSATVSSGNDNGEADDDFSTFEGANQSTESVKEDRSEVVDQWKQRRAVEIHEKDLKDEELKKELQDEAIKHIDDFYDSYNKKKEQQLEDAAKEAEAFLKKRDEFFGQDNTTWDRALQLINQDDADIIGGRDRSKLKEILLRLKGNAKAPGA

Q: With “clathrin heavy chain (from UniProt P22137)” as the substance, how does the Kd read?
A: 1 nM
